Experimental data as given in the supplement of paper PMC10567573.

B1: NET1 (parent)
chain: IKRTIRVLDVNNQSFREQEEPSNK
B2: DYRK1B (parent)
chain: YQGPGTRRLQEVLGVQTGGPGGRR

Variants of: B1
Test: protein stability index of a GFP-peptide fusion (GPS, HEK-293T) (PSI 1-6); higher = more stable
Details: c terminus: a fixed tail appended
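Further: lentivirally expressed fusions sorted by FACS into six bins by GFP to DsRed ratio, PSI derived from sequencing read proportions per bin multiplied by bin number.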

Row | Variant | protein stability index
1 | DKRTIRVLDVNNQSFREQEEPSNK [I1D] | 4.58
2 | EKRTIRVLDVNNQSFREQEEPSNK [I1E] | 4.07
3 | CKRTIRVLDVNNQSFREQEEPSNK [I1C] | 4.76
4 | AKRTIRVLDVNNQSFREQEEPSNK [I1A] | 3.82
5 | FKRTIRVLDVNNQSFREQEEPSNK [I1F] | 4.03

Variants of: B2
Test: as above
Details: c terminus: a fixed tail appended

Row | Variant | protein stability index
6 | YQGPGTRRLQEVLGVQRGGPGGRR [T17R] | 2.8
7 | YQGPGTRRLQEVLGVQSGGPGGRR [T17S] | 2.77
8 | YQGPGTRRLQEVLGVQFGGPGGRR [T17F] | 2.85
9 | YQGPGTRRLQEVLGVQLGGPGGRR [T17L] | 3.3
10 | YQGPGTRRLQEVLGVQVGGPGGRR [T17V] | 3.62
11 | YQGPGTRRLQEVLGVQQGGPGGRR [T17Q] | 3.47
12 | YQGPGTRRLQEVLGVQYGGPGGRR [T17Y] | 3.11
13 | YQGPGTRRLQEVLGVQNGGPGGRR [T17N] | 3.83
14 | YQGPGTRRLQEVLGVQGGGPGGRR [T17G] | 3.66
15 | YQGPGTRRLQEVLGVQCGGPGGRR [T17C] | 2.95
16 | YQGPGTRRLQEVLGVQHGGPGGRR [T17H] | 3.69
17 | YQGPGTRRLQEVLGVQWGGPGGRR [T17W] | 2.49
18 | YQGPGTRRLQEVLGVQAGGPGGRR [T17A] | 3.27
19 | YQGPGTRRLQEVLGVQIGGPGGRR [T17I] | 2.75
20 | YQGPGTRRLQEVLGVQPGGPGGRR [T17P] | 3.5
21 | YQGPGTRRLQEVLGVQMGGPGGRR [T17M] | 3.24
22 | YQGPGTRRLQEVLGVQDGGPGGRR [T17D] | 3.45
23 | YQGPGTRRLQEVLGVQEGGPGGRR [T17E] | 3.44
24 | YQGPGTRRLQEVLGVQKGGPGGRR [T17K] | 3.24
25 | YQGPGTRRLQEVLGVQTGGPGGAR [R23A] | 4.05
26 | YQGPGTRRLQEVLGVQTGGPGGKR [R23K] | 2.55
27 | YQGPGTRRLQEVLGVQTGGPGGPR [R23P] | 3.26
28 | YQGPGTRRLQEVLGVQTGGPGGHR [R23H] | 3.1

Row | Variant | protein stability index
29 | YQGPGTRRLQEVLGVQTGGPGGSR [R23S] | 2.59
30 | YQGPGTRRLQEVLGVQTGGPGGQR [R23Q] | 3.38
31 | YQGPGTRRLQEVLGVQTGGPGGFR [R23F] | 2.37
32 | YQGPGTRRLQEVLGVQTGGPGGYR [R23Y] | 2.67
33 | YQGPGTRRLQEVLGVQTGGPGGMR [R23M] | 3.27
34 | YQGPGTRRLQEVLGVQTGGPGGVR [R23V] | 2.88
35 | YQGPGTRRLQEVLGVQTGGPGGLR [R23L] | 3.12
36 | YQGPGTRRLQEVLGVQTGGPGGDR [R23D] | 3.8
37 | YQGPGTRRLQEVLGVQTGGPGGCR [R23C] | 2.87
38 | YQGPGTRRLQEVLGVQTGGPGGTR [R23T] | 3.23
39 | YQGPGTRRLQEVLGVQTGGPGGIR [R23I] | 2.75
40 | YQGPGTRRLQEVLGVQTGGPGGNR [R23N] | 3.29
41 | YQGPGTRRLQEVLGVQTGGPGGGR [R23G] | 3.01
42 | YQGPGTRRLQEVLGVQTGGPGGWR [R23W] | 2.22
43 | YQGPGTRRLQEVLGVQTGGPGGER [R23E] | 3.32
44 | YQGPGTRRLQEVLGVETGGPGGRR [Q16E] | 3.39
45 | YQGPGTRRLQEVLGVDTGGPGGRR [Q16D] | 4.06
46 | YQGPGTRRLQEVLGVCTGGPGGRR [Q16C] | 2.1
47 | YQGPGTRRLQEVLGVVTGGPGGRR [Q16V] | 2.61
48 | YQGPGTRRLQEVLGVPTGGPGGRR [Q16P] | 2.77
49 | YQGPGTRRLQEVLGVYTGGPGGRR [Q16Y] | 3.19
50 | YQGPGTRRLQEVLGVSTGGPGGRR [Q16S] | 2.82
51 | YQGPGTRRLQEVLGVTTGGPGGRR [Q16T] | 2.78

Row | Variant | protein stability index
52 | YQGPGTRRLQEVLGVFTGGPGGRR [Q16F] | 2.01
53 | YQGPGTRRLQEVLGVATGGPGGRR [Q16A] | 2.81
54 | YQGPGTRRLQEVLGVLTGGPGGRR [Q16L] | 2.96
55 | YQGPGTRRLQEVLGVITGGPGGRR [Q16I] | 1.74
56 | YQGPGTRRLQEVLGVWTGGPGGRR [Q16W] | 2.26
57 | YQGPGTRRLQEVLGVNTGGPGGRR [Q16N] | 3.32
58 | YQGPGTRRLQEVLGVMTGGPGGRR [Q16M] | 2.98
59 | YQGPGTRRLQEVLGVKTGGPGGRR [Q16K] | 3.55
60 | YQGPGTRRLQEVLGVGTGGPGGRR [Q16G] | 3.42
61 | YQGPGTRRLQEVLGVHTGGPGGRR [Q16H] | 3.75
62 | YQGPGTRRLQEVLGVRTGGPGGRR [Q16R] | 3.09
63 | YQGPGTRRLQEVLGSQTGGPGGRR [V15S] | 3.59
64 | YQGPGTRRLQEVLGYQTGGPGGRR [V15Y] | 2.92
65 | YQGPGTRRLQEVLGKQTGGPGGRR [V15K] | 3.01
66 | YQGPGTRRLQEVLGFQTGGPGGRR [V15F] | 3.62
67 | YQGPGTRRLQEVLGMQTGGPGGRR [V15M] | 2.24
68 | YQGPGTRRLQEVLGLQTGGPGGRR [V15L] | 2.68
69 | YQGPGTRRLQEVLGGQTGGPGGRR [V15G] | 3.63
70 | YQGPGTRRLQEVLGQQTGGPGGRR [V15Q] | 4
71 | YQGPGTRRLQEVLGIQTGGPGGRR [V15I] | 2.07
72 | YQGPGTRRLQEVLGWQTGGPGGRR [V15W] | 3.1
73 | YQGPGTRRLQEVLGNQTGGPGGRR [V15N] | 3.81
74 | YQGPGTRRLQEVLGTQTGGPGGRR [V15T] | 2.96

Row | Variant | protein stability index
75 | YQGPGTRRLQEVLGRQTGGPGGRR [V15R] | 3.34
76 | YQGPGTRRLQEVLGVQTGCPGGRR [G19C] | 2.87
77 | YQGPGTRRLQEVLGVQTGTPGGRR [G19T] | 3.44
78 | YQGPGTRRLQEVLGVQTGHPGGRR [G19H] | 2.98
79 | YQGPGTRRLQEVLGVQTGFPGGRR [G19F] | 3.33
80 | YQGPGTRRLQEVLGVQTGQPGGRR [G19Q] | 3.05
81 | YQGPGTRRLQEVLGVQTGRPGGRR [G19R] | 2.47
82 | YQGPGTRRLQEVLGVQTGLPGGRR [G19L] | 2.81
83 | YQGPGTRRLQEVLGVQTGYPGGRR [G19Y] | 2.9
84 | YQGPGTRRLQEVLGVQTGKPGGRR [G19K] | 3.43
85 | YQGPGTRRLQEVLGVQTGPPGGRR [G19P] | 3.66
86 | YQGPGTRRLQEVLGVQTGEPGGRR [G19E] | 3.63
87 | YQGPGTRRLQEVLGVQTGIPGGRR [G19I] | 2.85
88 | YQGPGTRRLQEVLGVQTGMPGGRR [G19M] | 2.75
89 | YQGPGTRRLQEVLGVQTGVPGGRR [G19V] | 3.19
90 | YQGPGTRRLQEVLGVQTGNPGGRR [G19N] | 3.05
91 | YQGPGTRRLQEVLGVQTGSPGGRR [G19S] | 2.81
92 | YQGPGTRRLQEVLGVQTGWPGGRR [G19W] | 2.14
93 | YQGPGTRRLQEVLGVQTGAPGGRR [G19A] | 3.34
94 | YQGPGTRRLQEVLGVQTGDPGGRR [G19D] | 3.58
